The results in this text go back to patent US20240026407A1, “MODIFICATION OF SAPONINS” (GLAXOSMITHKLINE BIOLOGICALS SA, priority 2020, published 2024).

Common to all, as to type: biochemical, Quillaja saponaria
Test [1] in a line: Experiment 5-1: screening of additional glucosidases for deglycosylation with purified QS-18 (0.04 mg/ml) at pH 7.5 and 30 deg C. The settings on record: pH 7.5, 30 degrees C, 18 hours, LCMS/MS. On the procedure:
The 94 additional genes, together with positive control (DNA encoding SEQ ID No. 262) and negative control, were transformed, expressed, lysed and reacted in the same manner as described above for Experiment 4-1, except the reaction was incubated at 30 degrees C. for 18 hours.
Samples were analysed by LCMS/MS according to the procedure in Experiment 4-1.

A short description of test [2]: Experiment 5-2: screening of additional glucosidases for deglycosylation with QS-18 in crude bark extract (80%) at pH 6 and 35 deg C. As to conditions: CBE 80%, pH 6, 35 deg C, 18 hours; UV HPLC. The method in brief: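 Deglycosylation of QS-18 was monitored by UV HPLC after MeCN/AcOH quench with hexanophenone. The reaction ran 18 hours at 35 deg C, shaking, combining clarified pH 6 lysate with crude bark extract neutralised to pH 6 by NaOH.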

A short description of test [3]: Experiment 5-3: screening of additional glucosidases for deglycosylation with QS-18 in treated bark extract (80%) at pH 6 and 35 deg C. As to conditions: TBE 80% (QS-21 approx. 4 g/L), pH 6, 35 deg C; UV HPLC. The protocol:
Experiment 5-1 was repeated, replacing CBE with Treated Bark Extract (TBE) at pH 6. TBE was prepared from CBE by PVPP treatment and concentration, to provide TBE with a QS-21 concentration of approximately 4 g/L. TBE was adjusted to pH 6 by dropwise addition of 2M NaOH with stirring.

A value given as a limit tells only on which side of the number the result lay.

B1: 874 (protein)
chain: MSEQTSSSTYPSVNDLSLEEKASLTSGGDAWHLQPIEERGIPGYMITDGPHGLRKTAGDTGAIDLEHTVPATCFPPAAGMSSTWNPELVEEVGQAMAEECIQEKVAVILGPGVNIKRNPLGGRCFEYWSEDPYLAGHEAVGIVKGVQSKGVGTSLKHFAVNNQETDRLRIDARVSQRALREIYLPAFEHIVKTAQPWTVMCAYNRINGVYAAQNRWLLTDVLRKEWGFKGIVMSDWGADHDRVASLNAGLNLEMPPSFTDDQIVSAARDGRISPKQLDDMAQGMIGLVNKTRQAMSVEDYRFDAQVHDDIARRAAAESMVLLKNDEHILPLSKNARVAVIGEFARTPRYQGGGSSHITPTQLTSLLDALQQRGIEYDFAPGFTLEDGEQEQSLVDEAVNIASKADAVVMCLGLPEYAESEGFDRTSLDIPAKQLELLSKVRESNANVVVLLSNGSVVSLTPWQDQAKAVVETWLLGQSGGGAIADMLFGDVNPSGKLSQTIPLNILDDPSMLNWPGEEGHVDYGEGVFVGYRYYDTYAKEVAYPFGFGLSYSDFSIDNVSVERTGANTACVRATVTNVSQTAGAQTVQIYVAPGRSEVARPVHELKGFAKVFLEAGESKEISIDLDERAFAYWSERFNDWHIEAGTYGIEVATSSRDIVERLDIELEGDGKSLPLNEWSNMSEWRKDPVGGPIVKRMFEEGRDGRIPALPENNLGAELFLDAMPINSMSVLLGKDGKVLTQFLLDEYAKETDGLH
modifications: Bifidobacterium tsurumiense
B1: the “Experiment 5-1 % conv” value in test [1] is 29.4%. Moreover, in test [2], the “Experiment 5-2 % conv” value is less than 0.5%. The “Experiment 5-3 % conv” value in test [3] is less than 0.5%.

B2: 882 (protein, listed as Acidipropionibacterium acidipropionici)
chain: MAESPIQSLSMRSLSTEQKAALTSGADFWHTESCAPLGLPAIMLTDGPHGLRKQTGSTDMLGLGSSVPATCFPPAVGLGSSWDVDLIHRVGAALGAEASIEGVAVLLGPAINIKRSPLCGRNFEYISEDPLVAGTLGAAMVEGIQSRAVGACVKHFAANNQETDRMRVSADVDPRALHEIYLRAFEQVVRRAEPWMVMCSYNRINGVPASQDHWLLTDLLRGQWGFDRVVVSDWGAVSDRVASLSAGLDLEMPGTAGRTDAQILAALASGTLDEETLDSAAARVVTLLRRAAVGAGEVSGPLDVDAHHRLAREAAARSIVLLRNEVQRSETTGDEGALLPLRPDARIAVIGAFAEQPRYQGAGSSRINPTRLDTALAEIRALASGEVSYSPGFRLTPESVGPAEELRRDAAEAASQAEVAVVFLGLGDDAESEGFDRTGIDLSADQLALLDDVLAANPNTVVVLSNGAVVALPFADRVPAILEAWLGGQAGGGGVADVLFGRVNPSGRLTETIPKRLADSPAYLDFPGEHGHVRYGEGIFVGYRWYDARELEVAFPFGHGLSYTTFSYGQASAALDEDGNITVRLPVTNTGAVAGREVVQAYVSLPGSAVQRPPRELKGFVVVEAEPGQTVEAEMLIRREDLAYWDLRIDRWRVEAGTYRIDVAASSRDIRSSVEVVVPDGDAPIPLNWDSTLGELMAHPVAGPALAQAMAGALEGFAGAGDLMPAGAMAQMAGSLPLRALLTLGGDAVTPETLNQLIVLANGSPRK
As for B2, in test [1], the “Experiment 5-1 % conv” value was found to be 31.4%. The “Experiment 5-2 % conv” value in test [2] is on record as less than 0.5%. Also, in test [3], the “Experiment 5-3 % conv” value is given as less than 0.5%.

B3: 873 (protein, listed as Bifidobacterium longum)
chain: MSESTYPSVKDLTLEEKASLTSGGDAWHLQGVEAKGIPGYMITDGPHGLRKSLTSSTGETDLDNSVPATCFPPAAGLSSSWNPELIHKVGEAMAEECIQEKVAVILGPGVNIKRNPLGGRCFEYWSEDPYLAGHEAIGIVAGVQSKGVGTSLKHFAANNQETDRLRVDARISQRALREIYLPAFEHIVKTAQPWTIMCSYNRINGVHSAQNHWLLTDVLRDEWGFEGIVMSDWGADHDRVASLNAGLNLEMPPSYTDDQIVYAARDGRIAPAQLDRMAQGMIDLINKARAAMSIDGYRFDVDAHDEVAHQAAIESIVLLKNDDAILPLNADPAAARKIAVIGEFARTPRYQGGGSSHITPTKMTSFLDTLAERGIKADFAPGFTLDMESADPALESEAVETAKNADVVLMFLGLPEAAESEGFDRDTLDMPAKQIALLEQVAAANKNVVVVLSNGSVITVAPWAKNAKGILESWLLGQSGGPALADVIFGQVSPSGKLAQSIPLDINDDPSMLNWPGEEGHVDYGEGVFVGYRYYDTYGKVVDYPFGYGLSYATFEIADVAAAKTGANTATVTATVTNTSDVDASETVQVYVAPGKADVARPKHELKGFTKVFLKAGESKTVTIDLDERAFAYWSEKYNDWHVESGEYAIEVGTSSRDIAETVTVALDGDGKTQPLTEWSTYGEWEADPFGAKIVAAVAAAGEAGELLKLPDNAMMRMFLNSMPINSLPTLLGEGGKKIAQFMLDEYAKLSK
For the molecule B3, the “Experiment 5-1 % conv” value in test [1] came out at 43.9%. The “Experiment 5-2 % conv” value in test [2] is less than 0.5%. The “Experiment 5-3 % conv” value in test [3] was less than 0.5%.

B4: 825 (protein, listed as Bifidobacterium bohemicum)
chain: MSEQNSERKATLPQAKDLSVEEQSALTSGTNPWSIGRVEGKGLPNYTITDGPHGLRKARDLDGMDVDAAVPATCFPPAAGMSSSWNPELIKKTGEAMGEECVQEQVAVILGPGVNIKRNPLGGRCFEFWSEDPYLAGHEAIGEVEGIQSKGIGTSLKHFAANNQETDRLRVNARISERAMREIYLPAFEHIIKNAQPWTVMCSYNRINGEYASQNSWLLTDVLRKEWGFKGIVMSDWGAVHDRAAALNAGLNLEMPPTHTDDKIVQAVRDGQVKPEQLEAMSQGMIDLVAKTQPAMEKGAAGYRYDVDEHDEIAREAAREAMVLLKNEDGLLPVKPGTKLAVIGEFARTPRYQGAGSSLINPNKLTSFLDALKDRGVEAEFAPGFTLDGDEQSQELTDEAVNAAESADTVLLFIGLPAEAESEGFDRTTLDIPAKQIEVLKAVSAVNKNVVVILSNGSVVSMPWADQAKSILECWLLGQAGGAATADVVFGDVNPSGKLAQTIVNNLDDDPSMLNWPGEEGHVDYGEGVFVGYRYYDSFHKAVTYPFGYGLSYTTFDISEVNAQKSGPQSVHVTAMVTNTGSMAGAEVVQVYVAPPACRVDRPVHELKAFKKVFLEPGQSQEVSFDLDSRAFAYWSERFEDWKVEGGSYGIEVGDSSRSIAQTVPVQLDDDGKRMKLTKWSTYGEWREDPDGNKILDKVISELEAKYGHAIIPDSQLIIMFLKSAPLGGMSMVLGANEAQDICERALAEYAKIGR
With B4, in test [1], the “Experiment 5-1 % conv” value is 24.5%. The “Experiment 5-2 % conv” value in test [2] is listed as less than 0.5%. Further, the “Experiment 5-3 % conv” value in test [3] was less than 0.5%.

B5: 824 (protein, listed as Pestalotiopsis fici)
chain: MMTTDIEAVLKSLTLEEKISLLAGQNFWETVPVPGKVPHIKTSDGPNGARGADFTGGTRAACFPAASNVAATFDLDIANRIGQALAEETQSKGARCLLAPTTCIHRHPLGGRNFESFSEDPLLSGKLASQVIQGVQSKGVAATIKHFAANEQETERMSVDETISERALREIYLRPFEIAVKEAKPWAVMTAYNCVNGEHCDSNAFNFKVLREEWGWKGLVMSDWGGTNSTAEALNAGLDLEMPGPTNRRKIPDVLAAIKEGKTTERAIDDRARAVLEFIDRLKAFEDPTIPPEQAINKPEHQALIREAGAKGCVLLKNDNGVLPLSKDKVKGKKVAVFGLAKTPLAHGGGSASVNAHYKIAPWDALQEAVGDSAELVYSQGAHTQRILLPIGEDKSAGSIVGLDGKPGFTLQVFDNATQAIEETTHGHPSSSISPLGSKATLYKILEFVGDFTPTESGSHYLGCTGLGLTQVYVNDKLVYDQQKASPDAMGFLFGAISEDEFTYPFTAGNAYRIRVRSLPPIDVPGLEILNGRSGVRLGLQLASEHDADLQGEAVALAKDADYALVFTGHDPQWETEGQDQESFNLPRKGTQDALISAVAKVNPNTVVINSTGVAIALPWLEQVSSLVHAGFPGQECGNSIVDVITGAVNPEGRLPMSFPKRLEDAPAYGNFPGEYVNGQLKVEYKEGVFVGYRHYDRIGRDKVNFAFGHGLSYTTFATDSLRVSRKSETEFSASVNVTNTGKTQGGTLVQLYAGNATTSPEHPIKGLVAFKKIRLEPGQTQTVDLAVAARDLGFFDESRGQWVVPAGQYDFSLGESALDIIQTVKVAVEKELTSAP
For the molecule B5, the “Experiment 5-1 % conv” value in test [1] was determined as 23.5%. Besides, in test [2], the “Experiment 5-2 % conv” value is listed as less than 0.5%. In test [3], the “Experiment 5-3 % conv” value was less than 0.5%.

B6: 844 (protein, listed as Paenarthrobacter aurescens)
chain: MNPTLSAAVTAPSAGTQDAEAEIRDLAQSLTLEQQVQLLTGADVWSTHAIPEIGLSRVVMSDGPAGVRGEDFDERHDSVSLPSSSALSATWSVETARNYGQVLGQEARRKGVHAVLGPTINLHRSPLGGRHFECMSEDPRLTATMAAGYVAGVQSMGVGATPKHYLANEAETERFTADSVVDERPLRELYLAAFEDAITEARAWLVMSSYNSINGTTASENKLLETPLSTEWGFDGVVVSDWTGVRSIDAANAHQDLEMPGPVGHWGPKLLAAVNEGRVSREAILEKVTRILRLAARVGSLEGFEPAVTHLPTELNGAAVAREVAVRGAVLVRNKGLLPLDAKALGSVAVIGHNADEARTQGGGSATVMPKYTVSPLEGLRKALPEGVKVTYARGAKVAEGIQAFPRTSLHNPVSNVPGIRVTFLAEDGTEISGEDRLASHLIWFGIGIPDGAASIRMEADWTAETAGVHHLGVGTVGRIRFVLDGTEVFNSELEDDTEVLGAALFDPPKTVHAIDTTAGQSIRIEAEYQLPKEQVIPFTAILLGEETVVAEPQAEIDAAVEAARASDVAVVVVGTNAAIESEGFDRKDLDLPGYQNQLVKAVAAANPRTVVVVNSGSPVLMPWLDTVDAVLLGWFGGQEFGSAVADILLGVEEPGGRLPTTWPSALDDVPVLNTTPTDGKVVYSEGIHIGYRAWLKQQAEGGAAPALPFGFGLGYTTFEFGKAHAPQAVTAGKDLVVHVPVKNTGTRTGREVVQVYVERTESAVERPVRWLAGYAGAHLAPAGTESVEIRIPAKAFAHYDGGWQFEQGTFRLLVGRHAADDFQSLDIELR
As to B6, in test [1], the “Experiment 5-1 % conv” value amounted to 43.6%. Further, the “Experiment 5-2 % conv” value in test [2] was less than 0.5%. For the same molecule, the “Experiment 5-3 % conv” value in test [3] was less than 0.5%.
